Entries after “also recorded” stand apart in the source; their conditions may differ.
Key:
[1] = Circular dichroism (secondary structure); format: physicochemical
Method: CysBAGE4‐MalLNP and 2‐LNP formulations were analysed using DLS, circular dichroism (CD), and TEM. DLS analysis: CysBAGE4‐MalLNP and 2‐LNP formulations were diluted with Milli‐Q water and transferred to disposable cuvettes before measurement at 25°C with a 173° light scattering angle, […]. CD analysis: CysBAGE4‐MalLNP and 2‐LNP formulations were diluted with Milli‐Q water and analysed using a quartz cell with a 0.01 mm path length. Spectra were measured using a 0.5 nm step, 1 nm bandwidth and 1 s collection time per step. […]
NMR samples were analysed on either a Bruker AVIII 400 NMR system (1H-NMR frequency 400 MHz; 13C-NMR frequency 101 MHz) or a Bruker 500 MHz system (1H-NMR frequency 500 MHz; 13C-NMR frequency 125 MHz). […]
High-resolution mass spectra were recorded on a Bruker MicroTOF Focus II MS (ESI) operating in positive or negative ionisation mode. […]
Peptides were analyzed using a Waters Sunfire 5 μm, 2.1 x 150 mm column (C-18) at a flow rate of 0.6 mL/min. […]
Dynamic Light Scattering (DLS) Spectra were recorded using a Zetasizer Nano ZS (Malvern Panalytical) to measure the particle size and charge. […]
Circular Dichroism (CD) Spectra were recorded using a Chirascan spectropolarimeter (Applied Photophysics, U.K.). […]
windows, with 0.01 mm path length. Spectra were measured using a 0.5 nm step, 1 nm […]

[2] = test system: HHDII/DR1 mice; assay: In vivo toxicity in HHDII/DR1 mice; parameters: species or system HHDII/DR1 (HLA‐A2 transgenic) mice; conditions: 10 nmol in 50 μL s.c., days 1, 8 and 15, n = 3
Method: Animal experiments were carried out with ethical approval from University of Nottingham ethical review board and under a Home Office approved project license (PP2706800). Mice were dosed with 10 nmol of material in 50 μL at Days 1, 8 and 15 (n = 3). IFNϒ ELISpot assays on splenocytes were conducted on termination at Day 21. General methods for the ELISpot can be found in the Supporting Information. Preparation of media and buffers and steps performed on Days 1 and 2 post‐termination; the ELISpot assays were performed using a laminar flow cabinet and aseptic techniques to ensure the sterility of media, reagents and plates at stages before development of the ELISpot. Development of the ELISpot on Day 4 posttermination was performed on the laboratory bench.
In Vivo Evaluation (ELISpot Assay)
Animal experiments were carried out with ethical approval from University of Nottingham ethical review boards and under a Home Office approved project license (PP2706800). HLA-HHDII/DR1 (HLA-A2.1+/+ HLADR1+/+, Pasteur Institute) transgenic mice knocked out for murine MHC-I and II and expressing chimeric HLA-A2 (HHDII) and human HLA-DR1 or Balb/c mice (Charles River) aged 6-12 weeks were used. Mice were vaccinated with 10 ηmol of each immunogen at each timepoint. Doses were delivered subcutaneously (s.c.) in 50 µl volume on days 1, 8 and 15. No anaesthesia was used for injections. […]

3: vaccine‐adjuvant construct Pam2Cys‐SK4‐NY‐ESO‐1_157‐165 [compound 3]
α‐helical character (f α) ([1]; CD spectra, Figures S12 and S13): 0.41
Secondary structure (in words) ([1]; CD, 0.01 mm path length, 180–280 nm): form α‐helical structures; also recorded: significantly more α‐helical character
In vivo toxicity outcome [2]: non‐toxic

From paper PMC12053792 (Journal of Peptide Science, 2025)
